Our source for the percent less efficient binding than to native MN values is PMC5704366.

The target in this experiment is mononucleosome assembled with an octamer lacking the H4 tail (human) (UniProt P0C0S8). The experiment can be described thus: pull-down.

“HIV-1 integrase, wild type (from UniProt P12497 1148-1435) (enzyme)” returned a percent less efficient binding than to native MN of 50 to 60%.
